For experiment [1], the target named is T1, human Fc-Frizzled-Kringle fusion protein (human Fc fused to the Frizzled and Kringle domains of human ROR1) (human).
T1 construct: Entry is printed with a leader; also called huFc-frz-KNG
Briefly: yeast surface display sorting.

The target in experiment [2] is T2, human ROR2 (on recombinant cell lines) (human, UniProt Q01974 34-943).
T2 construct: whole, on cells
The experiment in a line: flow cytometry on recombinant cell lines; confirmed by standard ELISA. Background: In flow cytometry, cells or beads pass a laser one at a time.

In experiment [3] the target is T3, human ROR1 (on cells) (human, UniProt Q01973 30-937). Briefly: cell-based or functional assay.
The target in experiment [4] is T3, human ROR1 (on cells). The experiment in a line: cell-based or functional assay. The source holds these as a separate data set.
The target of experiment [5] is T3, human ROR1 (on cells). The experiment in a line: cell-based or functional assay. The source holds these as a separate data set.
The target in experiment [6] is T3, human ROR1 (on cells). The experiment in a line: cell-based or functional assay. The source holds these as a separate data set.
Experiment [7] addresses T4, human CD3 (on Jurkat T cells or human CD8+ T cells) (human, UniProt P07766 23-207; P09693 23-182; P04234 22-171; P20963 22-164).
T4 construct: Entries are printed with signal peptides; also called huCD3; CD3ε
Briefly: flow cytometry, human CD8+ T cells. The method in brief:
(§1)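 Cells stained with test and reference bispecific TCEs, incubated 60 min at 4 °C protected from light, then 30 min at 4 °C further staining, washed and fixed before flow cytometry. Binding EC₅₀ from concentration vs MFI by 4-parameter non-linear regression.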

Experiment [8] deals with T5, cynomolgus CD3 (on cynomolgus pan-T cells) (cynomolgus, UniProt Q95LI5 22-198).
T5 construct: whole, on cells
T5 sequence (Q95LI5 22-198): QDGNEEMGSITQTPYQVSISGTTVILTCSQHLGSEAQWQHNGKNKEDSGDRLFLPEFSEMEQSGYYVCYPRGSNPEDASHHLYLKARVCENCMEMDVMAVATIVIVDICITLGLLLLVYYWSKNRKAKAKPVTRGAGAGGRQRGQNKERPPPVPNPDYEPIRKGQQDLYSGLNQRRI
The experiment in a line: flow cytometry, cynomolgus pan-T cells. The method in brief:
as §1

The target in experiment [9] is T3, human ROR1 (on cells). The experiment in a line: flow cytometry, ROR1+ MDA-MB-231 cells.
Experiment [10] has as its target T6, mouse ROR1 (on 4T1 cells engineered to overexpress it) (mouse, UniProt Q9Z139 30-937).
T6 construct: whole, on cells; also called muROR1; mROR1
The experiment in a line: flow cytometry, 4T1 cells overexpressing mouse ROR1.

The target of experiment [11] is T6, mouse ROR1 (on 4T1 cells engineered to …). Briefly: flow cytometry, 4T1-muROR1 cells; reference: 82H02 TCE #4. The protocol:
After 15-minutes of incubation at room temperature, the cells were washed twice with 200 μL of PBS by centrifugation at 500×g for 5 minutes at room temperature and resuspended in […] of 10% goat serum in BD staining buffer (BD Biosciences, Cat No: 554657). […] The plates were then covered with foil to avoid direct light and incubated for 60 minutes at 4° C. […] After incubating for 30 minutes at 4° C., the cells were washed twice with 200 μL of PBS by centrifugation at 500×g for 5 minutes at room temperature and resuspended into 100 μL of fixation buffer (BioLegend, Cat No: 420801). The samples were then analyzed on a flow cytometer for binding signal using FlowJo software. ROR and CD3 binding EC₅₀s (concentration vs mean fluorescence intensity (MFI)) for reference molecules and test bispecific TCEs were obtained using 4-parameter non-linear regression curve fitting in GraphPad Prism.

Experiment [12] deals with T3, human ROR1 (on cells). Briefly: flow cytometry, MDA-MB-231 cells; reference: 82H02 TCE #4.
For experiment [13], the target named is T6, mouse ROR1 (on 4T1 cells engineered to …). Briefly: flow cytometry; reference: human ROR1 on MDA-MB-231 cells.

T1 sequence (chain, as listed by the source limits assumed): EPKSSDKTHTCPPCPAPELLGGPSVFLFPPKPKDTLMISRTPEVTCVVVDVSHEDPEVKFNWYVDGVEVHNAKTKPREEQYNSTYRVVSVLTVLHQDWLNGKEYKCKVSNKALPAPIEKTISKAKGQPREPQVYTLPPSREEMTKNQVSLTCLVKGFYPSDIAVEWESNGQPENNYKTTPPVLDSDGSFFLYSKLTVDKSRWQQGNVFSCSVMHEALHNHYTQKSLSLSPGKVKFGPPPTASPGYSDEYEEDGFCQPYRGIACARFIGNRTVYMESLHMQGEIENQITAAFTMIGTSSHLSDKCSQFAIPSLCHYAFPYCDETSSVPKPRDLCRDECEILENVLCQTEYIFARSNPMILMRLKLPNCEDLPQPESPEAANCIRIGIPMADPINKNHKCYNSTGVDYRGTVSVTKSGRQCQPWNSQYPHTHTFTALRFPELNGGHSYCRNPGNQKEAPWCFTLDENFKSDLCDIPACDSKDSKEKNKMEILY
T4 sequence (P07766 23-207 limits assumed, chain 1 of 4): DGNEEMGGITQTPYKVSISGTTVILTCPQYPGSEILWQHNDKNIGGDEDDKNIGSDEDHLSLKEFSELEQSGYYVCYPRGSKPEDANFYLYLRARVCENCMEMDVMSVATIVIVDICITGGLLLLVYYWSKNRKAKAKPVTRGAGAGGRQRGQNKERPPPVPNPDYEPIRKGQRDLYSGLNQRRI
T4 sequence (P09693 23-182 limits assumed, chain 2 of 4): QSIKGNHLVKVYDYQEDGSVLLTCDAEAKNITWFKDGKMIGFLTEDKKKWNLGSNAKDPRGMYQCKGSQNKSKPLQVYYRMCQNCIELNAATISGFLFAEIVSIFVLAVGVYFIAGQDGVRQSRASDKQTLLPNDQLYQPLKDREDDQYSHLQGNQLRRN
T4 sequence (P04234 22-171 limits assumed, chain 3 of 4): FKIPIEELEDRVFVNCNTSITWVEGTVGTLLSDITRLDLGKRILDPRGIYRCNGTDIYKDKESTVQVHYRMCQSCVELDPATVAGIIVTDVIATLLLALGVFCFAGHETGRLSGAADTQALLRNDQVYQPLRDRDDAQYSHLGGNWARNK
T4 sequence (P20963 22-164 limits assumed, chain 4 of 4): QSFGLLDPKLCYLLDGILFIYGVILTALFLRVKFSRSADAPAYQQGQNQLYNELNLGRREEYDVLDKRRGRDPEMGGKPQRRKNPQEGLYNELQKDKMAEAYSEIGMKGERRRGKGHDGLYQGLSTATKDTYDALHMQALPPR

B1: Clone 82H02 (from a Fab yeast surface display library of immunized transgenic rats) (Fab, V domains shown)
VH: EVQLLESGGGLVQPGGSLRLSCAASGFTFTSYAMSWVRQAPGKGLEWVSTISGSGGGTYYTDSVKGRFTISRDNSKNTLYLQMNSLRAEDTAVYYCAQGSSIFDYWGQGTLVTVSS
VL: EIVLTQSPATLSLSPGERATLSCRASQSVSSYLAWYQQKPGQAPRLLIYDASNRATGIPARFSGSGSGTDFTLTISSLEPEDFAVYYCQQRSNWPPCTFGQGTRLEIK
As for B1, the binding result in [1] and in experiment [2] was “no binding” in each case.

B2: 82H02 TCE #3 (sequence optimized 82H02 bispecific TCE in Format 1A, low ROR1 / high CD3 affinity) (bispecific antibody)
heavy 1: EVQLVESGGGLVQPGGSLKLSCAASGFTFNTYAMNWVRQASGKGLEWVGRIRSKYNNYATYYADSVKGRFTISRDDSKNTLYLQMNSLKTEDTAVYYCVRHGNFGASYVSWFAYWGQGTMVTVSSASTKGPSVFPLAPSSKSTSGGTAALGCLVKDYFPEPVTVSWNSGALTSGVHTFPAVLQSSGLYSLSSVVTVPSSSLGTQTYICNVNHKPSNTKVDKKVEPKSCDKTHTCPPCPAPEAAGGPSVFLFPPKPKDTLMISRTPEVTCVVVDVSHEDPEVKFNWYVDGVEVHNAKTKPREEQYNSTYRVVSVLTVLHQDWLNGKEYKCKVSNKALGAPIEKTISKAKGQPFRPEVHLLPPSREEMTKNQVSLTCLARGFYPKDIAVEWESNGQPENNYKTTPSRQEPSQGTTTFAVTSKLTVDKSRWQQGNVFSCSVMHEALHNHYTQKTISLSPGK
heavy 2: EIVLTQSPATLSLSPGERATLSCRASQSVSSYLAWYQQKPGQAPRLLIYDASNRATGIPARFSGSGSGTDFTLTISSLEPEDFAVYYCQQRSNWPPFTFGQGTRLEIKGGGGSGGGGSGGGGSGGGGSEVQLLESGGGLVQPGGSLRLSCAASGFTFTSYAMSWVRQAPGKGLEWVSTISGSGGGTYYTDSVKGRFTISRDNSKNTLYLQMNSLRAEDTAVYYCAQGSSIFDYWGQGTLVTVSSEPKSSDKTHTCPPCPAPEAAGGPSVFLFPPKPKDTLMISRTPEVTCVVVDVSHEDPEVKFNWYVDGVEVHNAKTKPREEQYNSTYRVVSVLTVLHQDWLNGKEYKCKVSNKALGAPIEKTISKAKGQPREPQVYTLPPPSEELALNELVTLTCLVKGFYPSDIAVEWLQGSQELPREKYLTWAPVLDSDGSFFLYSILRVAAEDWKKGDTFSCSVMHEALHNHYTQKSLDRSPGKGGGGSGGGGSGGGGSGGGGSEIVLTQSPATLSLSPGERATLSCRASQSVSSYLAWYQQKPGQAPRLLIYDASNRATGIPARFSGSGSGTDFTLTISSLEPEDFAVYYCQQRSNWPPFTFGQGTRLEIKGGGGSGGGGSGGGGSGGGGSEVQLLESGGGLVQPGGSLRLSCAASGFTFTSYAMSWVRQAPGKGLEWVSTISGSGGGTYYTDSVKGRFTISRDNSKNTLYLQMNSLRAEDTAVYYCAQGSSIFDYWGQGTLVTVSS
light: QAVVTQEPSLTVSPGGTVTLTCRSSTGAVTTSNYANWVQQKPGQAPRGLIGGTNKRAPGTPARFSGSLLGGKAALTLSGVQPEDEAEYYCALWYSNLWVFGGGTKLTVLGQPKAAPSVTLFPPSSEELQANKATLVCLISDFYPGAVTVAWKADSSPVKAGVETTTPSKQSNNKYAASSYLSLTPEQWKSHRSYSCQVTHEGSTVEKTVAPTECS
notes: also called 82H02 #3; 82H02 VL1.06x1F3.5-VH1.03
Usually EC50 stands for the concentration needed to bring the measured effect to its halfway point. Low readings indicate a more potent agent, high ones a less potent agent. On to B2, for which the “TDCC EC50, PBMCs: MDA-MB-231” value with human ROR1 (on cells) [3] was determined as 148 nM. Besides, in the experiment with human ROR1 (on cells) [4], the “IFNγ release EC50, PBMCs: MDA-MB-231” value came out at 425 nM and the “Max IFNγ, PBMCs: MDA-MB-231” value came to 881 pg/mL. Also, in the experiment with human ROR1 (on cells) [5], the “TDCC AUC, PBMCs: MDA-MB-231-0.2” value is 31300; the “TDCC AUC, PBMCs: MDA-MB-231-0.4” value was determined as 44800; the “TDCC AUC, PBMCs: MDA-MB-231-0.6” value stood at 51000; the “TDCC AUC, PBMCs: MDA-MB-231-1.3” value was 61700. In the experiment with human ROR1 (on cells) [5], the “TDCC AUC, PBMCs: MDA-MB-231-7” value turned out to be 71400; the “TDCC EC50, PBMCs: MDA-MB-231-0.2” value is 0.0181 nM; the “TDCC EC50, PBMCs: MDA-MB-231-0.4” value amounted to 0.0153 nM; the “TDCC EC50, PBMCs: MDA-MB-231-0.6” value worked out at 0.0138 nM. Further, in the experiment with human ROR1 (on cells) [5], the “TDCC EC50, PBMCs: MDA-MB-231-1.3” value worked out at 0.0102 nM; the “TDCC EC50, PBMCs: MDA-MB-231-7” value turned out to be 0.00546 nM; the “TDCC Emax, PBMCs: MDA-MB-231-0.2” value stood at 33.1%; the “TDCC Emax, PBMCs: MDA-MB-231-0.4” value is 47.8%. In addition, in the experiment with human ROR1 (on cells) [5], the “TDCC Emax, PBMCs: MDA-MB-231-0.6” value was 53.8%; the “TDCC Emax, PBMCs: MDA-MB-231-1.3” value amounted to 63.2%; the “TDCC Emax, PBMCs: MDA-MB-231-7” value is 72.8%. Besides, in the experiment with human ROR1 (on cells) [6], the “IFNγ release AUC, PBMCs: MDA-MB-231-0.2” value worked out at 1.29e+06; the “IFNγ release AUC, PBMCs: MDA-MB-231-0.4” value was found to be 1.68e+06; the “IFNγ release AUC, PBMCs: MDA-MB-231-0.6” value was determined as 1.62e+06; the “IFNγ release AUC, PBMCs: MDA-MB-231-1.3” value amounted to 4.32e+06. In addition, in the experiment with human ROR1 (on cells) [6], the “IFNγ release AUC, PBMCs: MDA-MB-231-7” value turned out to be 4.43e+06; the “IFNγ release EC50, PBMCs: MDA-MB-231-0.2” value is 0.202 nM; the “IFNγ release EC50, PBMCs: MDA-MB-231-0.4” value worked out at 0.167 nM; the “IFNγ release EC50, PBMCs: MDA-MB-231-0.6” value turned out to be 0.107 nM. In the experiment with human ROR1 (on cells) [6], the “IFNγ release EC50, PBMCs: MDA-MB-231-1.3” value stood at 0.0308 nM; the “IFNγ release EC50, PBMCs: MDA-MB-231-7” value is 0.0271 nM; the “IFNγ release Emax, PBMCs: MDA-MB-231-0.2” value was found to be 1830%; the “IFNγ release Emax, PBMCs: MDA-MB-231-0.4” value came to 2250%. For the same molecule, in the experiment with human ROR1 (on cells) [6], the “IFNγ release Emax, PBMCs: MDA-MB-231-0.6” value is 3160%; the “IFNγ release Emax, PBMCs: MDA-MB-231-1.3” value was 4680%; the “IFNγ release Emax, PBMCs: MDA-MB-231-7” value is 4730%. For the same molecule, the EC50 in experiment [7] was determined as 3 nM. In experiment [8], this molecule returned a concentration for a half-maximal effect (EC50) of 4.4 nM. In the experiment with human ROR1 (on cells) [9], this molecule returned an EC50 of 211 nM. This molecule also had an EC50 in experiment [10] of 1040 nM. In addition, in experiment [11], the “fold difference in ROR1 binding affinity against 82H02 TCE #4” value is roughly 2 fold. The “fold difference in ROR1 binding affinity against 82H02 TCE #4” value with human ROR1 (on cells) [12] is roughly 3 fold. Also, the “fold difference in apparent ROR1 binding affinity between human and mouse ROR1” value in experiment [13] is roughly 5 fold.

(Values after patent publication US20240343800A1 (Merck KGaA, published 2024).)
